Data published in US5703220, “Genes encoding melanocertin-4 receptor and methods of use” (The Regents Of The University Of Michigan, dated 1997).
No end group written: not given here.

Assays:
[1] = molecular target: T1, mouse melanocortin-5 (mMC5) receptor (mouse); experiment: competition with radio-iodinated NDP-MSH on L-cells transfected with the mMC5 receptor
T1 chain: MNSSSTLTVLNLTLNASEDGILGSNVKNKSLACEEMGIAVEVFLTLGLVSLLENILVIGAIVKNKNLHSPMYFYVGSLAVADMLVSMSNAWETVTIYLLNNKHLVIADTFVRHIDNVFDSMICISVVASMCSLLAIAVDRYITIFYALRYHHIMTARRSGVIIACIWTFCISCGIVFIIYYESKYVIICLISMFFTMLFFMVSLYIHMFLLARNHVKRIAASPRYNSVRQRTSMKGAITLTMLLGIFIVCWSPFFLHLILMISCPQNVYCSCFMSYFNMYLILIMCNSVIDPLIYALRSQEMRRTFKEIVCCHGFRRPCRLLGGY

[2] = molecular target: human melanocortin-3 (MC3) receptor (human); experiment: cell-based or functional assay
[3] = molecular target: T2, human melanocortin-1 (MC1) receptor (human); experiment: cell-based or functional assay
T2 chain: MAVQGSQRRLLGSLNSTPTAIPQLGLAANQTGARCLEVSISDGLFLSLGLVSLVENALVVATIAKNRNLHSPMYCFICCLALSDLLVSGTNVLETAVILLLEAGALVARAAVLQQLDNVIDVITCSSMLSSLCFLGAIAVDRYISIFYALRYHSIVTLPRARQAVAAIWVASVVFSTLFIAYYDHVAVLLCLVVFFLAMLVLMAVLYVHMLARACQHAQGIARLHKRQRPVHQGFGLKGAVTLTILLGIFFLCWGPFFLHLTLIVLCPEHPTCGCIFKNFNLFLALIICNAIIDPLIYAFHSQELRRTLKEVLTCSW

[4] = molecular target: human melanocortin-4 (MC4) receptor (human); experiment: cell-based or functional assay
Sequence of human melanocortin-4 (MC4) receptor (human) (chain, as listed by the source): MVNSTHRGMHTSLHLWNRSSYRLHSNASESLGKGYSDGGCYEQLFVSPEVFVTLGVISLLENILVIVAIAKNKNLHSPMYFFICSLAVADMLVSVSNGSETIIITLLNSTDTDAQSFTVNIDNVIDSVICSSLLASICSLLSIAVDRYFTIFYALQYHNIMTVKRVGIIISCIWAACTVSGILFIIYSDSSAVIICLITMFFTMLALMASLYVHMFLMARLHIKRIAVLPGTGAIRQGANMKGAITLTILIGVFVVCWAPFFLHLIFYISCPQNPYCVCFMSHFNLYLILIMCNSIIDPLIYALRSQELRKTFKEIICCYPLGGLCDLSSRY

Sequence of human melanocortin-3 (MC3) receptor (human) (chain, as listed by the source limits assumed): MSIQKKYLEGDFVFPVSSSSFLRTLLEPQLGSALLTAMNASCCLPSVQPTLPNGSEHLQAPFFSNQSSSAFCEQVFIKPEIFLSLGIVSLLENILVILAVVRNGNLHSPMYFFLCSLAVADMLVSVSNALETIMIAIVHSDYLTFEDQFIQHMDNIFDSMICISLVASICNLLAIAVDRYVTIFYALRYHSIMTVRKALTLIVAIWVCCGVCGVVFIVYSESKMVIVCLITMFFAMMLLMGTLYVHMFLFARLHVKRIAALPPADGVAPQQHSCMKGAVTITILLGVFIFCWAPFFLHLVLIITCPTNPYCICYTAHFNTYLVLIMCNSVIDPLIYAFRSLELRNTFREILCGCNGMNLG

| fold greater binding affinity than ACTH (1-39) [1] | ED50 of cAMP generation in transfected L-cells [2] | ED50 of cAMP generation in transfected L-cells [3] | binding result [1] | EC50 of cAMP increase in transfected L-cells [4] | Binder |
| --- | --- | --- | --- | --- | --- |
| ~10 fold | – | – | – | – | SYSMEHFRWGKPV [ACTH (1-13)] |
| – | ~1 nM | ~1 nM | – | – | Ac-SYSMEHFRWGKPV (ends and bridges not checked) [α-MSH] |
| – | ~1 nM | ~1 nM | binds | 1 nM | SYSMEHFRWGKPVGKKRRPVKVYPNGAEDESAEAFPLEF [human ACTH (1-39)] |
